Changes are numbered by the printed parent chain. Names and notes keep the numbering of the source.
B1: EcZapD WT (residues 1-247) (natural protein)
chain: MQTQVLFEHPLNEKMRTWLRIEFLIQQLTVNLPIVDHAGALHFFRNVSELLDVFERGEVRTELLKELDRQQRKLQTWIGVPGVDQSRIEALIQQLKAAGSVLISAPRIGQFLREDRLIALVRQRLSIPGGCCSFDLPTLHIWLHLPQAQRDSQVETWIASLNPLTQALTMVLDLIRQSAPFRKQTSLNGFYQDNGGDADLLRLNLSLDSQLYPQISGHKSRFAIRFMPLDTENGQVPERLDFELACC

Key:
[1] = molecular target: the molecule itself; assay: SEC-MALS
[2] = molecular target: B1; assay: BLI
[3] = molecular target: T1, EcZapD E22R (residues 1-247) (E. coli, UniProt P36680 1-247, E22R); assay: BLI
T1 sequence: B1 chain with E22R

[4] = molecular target: T2, EcZapD H140R (residues 1-247) (E. coli, UniProt P36680 1-247, H140R); assay: BLI
T2 sequence: B1 chain with H140R

Row | Binder | stoichiometry N [1] | Kd [2] | Kd [3] | Kd [4]
1 | B1 | 2 |  |  | 
2 | KEPDYLDIPAFLRDQAD [GST-FtsZ_(367-383) K380D] |  | 4.7 ± 0.5 µM |  | 
3 | KEPDYLDIPAFLR [GST-FtsZ_(367-379)] |  | > 2000 µM |  | 
4 | KEPDYLDIPAFLRKQAD [GST-FtsZ_(367-383)] |  | 4.4 ± 0.5 µM | 68 ± 2.2 µM | 16 ± 1 µM
